# Assay results: patent EP4613767 (dated 2025)
# T1: human CD3 (Jurkat cells) (human, UniProt P07766)
# T1 chain: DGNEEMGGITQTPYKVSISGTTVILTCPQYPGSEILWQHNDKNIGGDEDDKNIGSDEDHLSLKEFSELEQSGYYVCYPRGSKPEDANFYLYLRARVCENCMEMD
# T2: monkey CD3 E&D protein (cynomolgus monkey, UniProt Q95LI5)
# T2 chain 1: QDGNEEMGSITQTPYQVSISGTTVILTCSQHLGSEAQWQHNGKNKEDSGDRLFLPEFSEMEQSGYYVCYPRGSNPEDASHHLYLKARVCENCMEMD
# T2 chain 2: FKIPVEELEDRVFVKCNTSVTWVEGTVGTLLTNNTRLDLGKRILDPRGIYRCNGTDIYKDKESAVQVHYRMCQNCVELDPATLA
# T3: human CD3 E&D protein (human, UniProt P07766)
# T3 chain 1: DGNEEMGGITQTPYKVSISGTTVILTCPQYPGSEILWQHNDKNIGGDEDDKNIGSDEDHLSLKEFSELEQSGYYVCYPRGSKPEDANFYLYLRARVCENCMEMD
# T3 chain 2: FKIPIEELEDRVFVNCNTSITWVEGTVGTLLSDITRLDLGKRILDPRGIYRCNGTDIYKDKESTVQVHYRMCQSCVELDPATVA
# How the values were obtained:
# human CD3 (Jurkat cells) = target: T1, human CD3 (Jurkat cells); assay: FACS, Jurkat cells
# human GPC3 protein = human GPC3 protein (human, UniProt P51654); assay: SPR
# Chain of human GPC3 protein (P51654 25-554): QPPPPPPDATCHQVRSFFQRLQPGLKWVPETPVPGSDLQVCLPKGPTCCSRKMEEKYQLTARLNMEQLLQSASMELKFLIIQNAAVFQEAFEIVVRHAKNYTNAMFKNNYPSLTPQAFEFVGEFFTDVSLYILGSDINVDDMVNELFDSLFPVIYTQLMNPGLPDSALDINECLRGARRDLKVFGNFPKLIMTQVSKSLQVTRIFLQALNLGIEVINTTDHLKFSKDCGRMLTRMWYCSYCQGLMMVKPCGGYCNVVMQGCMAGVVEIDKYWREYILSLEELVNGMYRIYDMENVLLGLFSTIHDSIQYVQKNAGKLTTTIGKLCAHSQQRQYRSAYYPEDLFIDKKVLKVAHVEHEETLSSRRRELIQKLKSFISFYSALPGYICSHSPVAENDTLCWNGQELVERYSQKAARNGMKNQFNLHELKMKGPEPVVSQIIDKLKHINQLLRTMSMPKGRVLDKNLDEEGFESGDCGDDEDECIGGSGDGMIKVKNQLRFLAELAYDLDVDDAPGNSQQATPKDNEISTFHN
# human GPC3 (HepG2 cells) = human GPC3 (HepG2 cells) (human, UniProt P51654); assay: FACS, HepG2 cells
# Chain of human GPC3 (HepG2 cells) (P51654 25-554): as above
# monkey CD3 E&D protein = target: T2, monkey CD3 E&D protein; assay: SPR
# human CD3 E&D protein = target: T3, human CD3 E&D protein; assay: SPR
binder,measurement,setting,value
"G100 (anti-CD3 scFv arm) (antibody, V domains shown) VH: EVKLVESGGGLVQPGGSLKLSCAASGFTFNTYAMNWVRQAPGKGLEWVARIRSKYNNYATYYADSVKDRFTISRDDAKNTLYLQMNNLRTEDTAVYYCVRHGNFGNSYVSWFAYWGQGTLVTVSS VL: QAVVTQEPSLTVSPGGTVTLTCRSSTGAVTTSNYANWVQQKPGQAPRGLIGGTNKRAPGTPARFSGSLLGGKAALTLSGAQPEDEAEYYCALWYSNLWVFGGGTKLTVL",EC50,human CD3 (Jurkat cells),23.9 nM
"G100 (anti-GPC3 VHH arm, monovalent, Format 1) (antibody, V domains shown) VH: QVQLVESGGGVVQPGGSLRLSCAASGRTLTNYVMGWFRQAPGKEREIVAGINWAGSRIGYGDFVKGRFTISRDNSKNTVYLQMNSLRPEDTAVYYCAAKLGKYNYPEYDYRGQGTLVTVSS VL: QAVVTQEPSLTVSPGGTVTLTCRSSTGAVTTSNYANWVQQKPGQAPRGLIGGTNKRAPGTPARFSGSLLGGKAALTLSGAQPEDEAEYYCALWYSNLWVFGGGTKLTVL",Kd,human GPC3 protein,8.36 nM
same,EC50,human GPC3 (HepG2 cells),0.42 nM
"G100 (anti-CD3 scFv arm) (antibody, V domains shown, Acro CDD-C52W4) VH: EVKLVESGGGLVQPGGSLKLSCAASGFTFNTYAMNWVRQAPGKGLEWVARIRSKYNNYATYYADSVKDRFTISRDDAKNTLYLQMNNLRTEDTAVYYCVRHGNFGNSYVSWFAYWGQGTLVTVSS VL: QAVVTQEPSLTVSPGGTVTLTCRSSTGAVTTSNYANWVQQKPGQAPRGLIGGTNKRAPGTPARFSGSLLGGKAALTLSGAQPEDEAEYYCALWYSNLWVFGGGTKLTVL",Kd,monkey CD3 E&D protein,5.66 nM
"G156 (anti-CD3 scFv arm) (antibody, V domains shown, Acro CDD-H52W1) VH: EVKLVESGGGLVQPGGSLKLSCAASGFTFNTYAMNWVRQAPGKGLEWVARIRSKYNNYATYYADSVKDRFTISRDDAKNTLYLQMNNLRTEDTAVYYCVRHGNFGNSYVSWFAYWGQGTLVTVSS VL: QAVVTQEPSLTVSPGGTVTLTCRSSTGAVTTSNYANWVQQKPGQAPRGLIGGTNKRAPGTPARFSGSLLGGKAALTLSGAQPEDEAEYYCALWYSNLWVFGGGTKLTVL",Kd,human CD3 E&D protein,1.3 nM
"G156 (anti-CD3 scFv arm) (antibody, V domains shown, Acro CDD-C52W4) VH: EVKLVESGGGLVQPGGSLKLSCAASGFTFNTYAMNWVRQAPGKGLEWVARIRSKYNNYATYYADSVKDRFTISRDDAKNTLYLQMNNLRTEDTAVYYCVRHGNFGNSYVSWFAYWGQGTLVTVSS VL: QAVVTQEPSLTVSPGGTVTLTCRSSTGAVTTSNYANWVQQKPGQAPRGLIGGTNKRAPGTPARFSGSLLGGKAALTLSGAQPEDEAEYYCALWYSNLWVFGGGTKLTVL",Kd,monkey CD3 E&D protein,2.79 nM
"G100 (anti-CD3 scFv arm) (antibody, V domains shown, Acro CDD-H52W1) VH: EVKLVESGGGLVQPGGSLKLSCAASGFTFNTYAMNWVRQAPGKGLEWVARIRSKYNNYATYYADSVKDRFTISRDDAKNTLYLQMNNLRTEDTAVYYCVRHGNFGNSYVSWFAYWGQGTLVTVSS VL: QAVVTQEPSLTVSPGGTVTLTCRSSTGAVTTSNYANWVQQKPGQAPRGLIGGTNKRAPGTPARFSGSLLGGKAALTLSGAQPEDEAEYYCALWYSNLWVFGGGTKLTVL",Kd,human CD3 E&D protein,3.49 nM
"G156 (anti-GPC3 VHH arm, two VHH copies, Format 2) (antibody, V domains shown) VH: QVQLVESGGGVVQPGGSLRLSCAASGRTLTNYVMGWFRQAPGKEREIVAGINWAGSRIGYGDFVKGRFTISRDNSKNTVYLQMNSLRPEDTAVYYCAAKLGKYNYPEYDYRGQGTLVTVSS VL: QAVVTQEPSLTVSPGGTVTLTCRSSTGAVTTSNYANWVQQKPGQAPRGLIGGTNKRAPGTPARFSGSLLGGKAALTLSGAQPEDEAEYYCALWYSNLWVFGGGTKLTVL",Kd,human GPC3 protein,5.42 nM
same,EC50,human GPC3 (HepG2 cells),0.16 nM
"G156 (anti-CD3 scFv arm) (antibody, V domains shown) VH: EVKLVESGGGLVQPGGSLKLSCAASGFTFNTYAMNWVRQAPGKGLEWVARIRSKYNNYATYYADSVKDRFTISRDDAKNTLYLQMNNLRTEDTAVYYCVRHGNFGNSYVSWFAYWGQGTLVTVSS VL: QAVVTQEPSLTVSPGGTVTLTCRSSTGAVTTSNYANWVQQKPGQAPRGLIGGTNKRAPGTPARFSGSLLGGKAALTLSGAQPEDEAEYYCALWYSNLWVFGGGTKLTVL",EC50,human CD3 (Jurkat cells),27.4 nM
